Results taken from US20220185894A1 (F STAR THERAPEUTICS, published 2022).

B1: anti-human LAG-3/PD-L1 mAb2 FS18-7-62/84G09 with LALA mutation (bispecific antibody, human IgG1, kappa, L234A L235A)
heavy: EVQLVESGGGLVQPGRSLRLSCAASGFTFDDYAMHWVRQTPGKGLEWVSGISWKSNIIGYADSVKGRFTISRDNAKNSLYLQMNSLRAEDTALYYCARDITGSGSYGWFDPWGQGTLVTVSSASTKGPSVFPLAPSSKSTSGGTAALGCLVKDYFPEPVTVSWNSGALTSGVHTFPAVLQSSGLYSLSSVVTVPSSSLGTQTYICNVNHKPSNTKVDKKVEPKSCDKTHTCPPCPAPEAAGGPSVFLFPPKPKDTLMISRTPEVTCVVVDVSHEDPEVKFNWYVDGVEVHNAKTKPREEQYNSTYRVVSVLTVLHQDWLNGKEYKCKVSNKALPAPIEKTISKAKGQPREPQVYTLPPSWDEPWGEDVSLTCLVKGFYPSDIAVEWESNGIPEWNYKTTPPVLDSDGSFFLYSKLTVPYDRWVWPDEFSCSVMHEALHNHYTQKSLSLSPG
light: DIQMTQSPSSLSASVGDRVTITCRASQSISSYLNWYQQKPGKAPKPLIYVASSLQSGVPSSFSGSGSGTDFTLTISSLQPEDFATYYCQQSYSNPITFGQGTRLEIKRTVAAPSVFIFPPSDEQLKSGTASVVCLLNNFYPREAKVQWKVDNALQSGNSQESVTEQDSKDSTYSLSSTLTLSKADYEKHKVYACEVTHQGLSSPVTKSFNRGEC
notes: also called FS18-7-62/84G09LALA; F518-7-62/84G09LALA
B2: anti-FITC mAb 4420 without LALA mutation (wild-type IgG1) (antibody)
heavy: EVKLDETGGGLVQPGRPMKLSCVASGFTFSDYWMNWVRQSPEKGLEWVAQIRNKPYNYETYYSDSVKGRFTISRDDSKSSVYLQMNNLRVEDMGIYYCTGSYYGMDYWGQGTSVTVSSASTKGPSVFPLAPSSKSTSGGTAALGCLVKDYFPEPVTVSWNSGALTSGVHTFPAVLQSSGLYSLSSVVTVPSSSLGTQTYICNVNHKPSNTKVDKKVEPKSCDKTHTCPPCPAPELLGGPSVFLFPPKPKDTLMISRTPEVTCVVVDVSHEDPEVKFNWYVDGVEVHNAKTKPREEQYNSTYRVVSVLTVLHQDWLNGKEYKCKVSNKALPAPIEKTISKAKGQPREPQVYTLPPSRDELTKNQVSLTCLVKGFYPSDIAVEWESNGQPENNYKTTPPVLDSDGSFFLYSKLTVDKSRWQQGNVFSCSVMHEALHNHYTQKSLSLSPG
light: DVVMTQTPLSLPVSLGDQASISCRSSQSLVHSNGNTYLRWYLQKPGQSPKVLIYKVSNRFSGVPDRFSGSGSGTDFTLKISRVEAEDLGVYFCSQSTHVPWTFGGGTKLEIKRTVAAPSVFIFPPSDEQLKSGTASVVCLLNNFYPREAKVQWKVDNALQSGNSQESVTEQDSKDSTYSLSSTLTLSKADYEKHKVYACEVTHQGLSSPVTKSFNRGEC
notes: also called mock mAb IgG1; 4420 mAb IgG1
B3: anti-FITC mAb 4420 comprising LALA mutation (antibody, human IgG1, kappa, L234A L235A)
heavy: not shown
light: DVVMTQTPLSLPVSLGDQASISCRSSQSLVHSNGNTYLRWYLQKPGQSPKVLIYKVSNRFSGVPDRFSGSGSGTDFTLKISRVEAEDLGVYFCSQSTHVPWTFGGGTKLEIKRTVAAPSVFIFPPSDEQLKSGTASVVCLLNNFYPREAKVQWKVDNALQSGNSQESVTEQDSKDSTYSLSSTLTLSKADYEKHKVYACEVTHQGLSSPVTKSFNRGEC
notes: also called mock mAb LALA; 4420 LALA

Key:
[1] = molecular target: human PD-L1 expressed on cells (human, UniProt Q9NZQ7 19-290); test: cell-based or functional assay
Chain of human PD-L1 expressed on cells (Q9NZQ7 19-290 limits assumed): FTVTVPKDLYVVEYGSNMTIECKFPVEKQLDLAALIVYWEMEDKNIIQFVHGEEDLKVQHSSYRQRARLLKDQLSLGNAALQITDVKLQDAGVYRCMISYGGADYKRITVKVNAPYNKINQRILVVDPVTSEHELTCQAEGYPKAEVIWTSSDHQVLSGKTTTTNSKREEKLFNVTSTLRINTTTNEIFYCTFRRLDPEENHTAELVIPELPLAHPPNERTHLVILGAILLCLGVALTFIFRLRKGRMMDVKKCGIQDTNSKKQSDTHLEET

[2] = molecular target: T1, human LAG-3 expressed on cells (human, UniProt P18627 23-525); test: flow cytometry on HEK cells expressing human LAG-3
T1 construct: also called hLAG-3; DO11.10 hLAG-3
T1 sequence: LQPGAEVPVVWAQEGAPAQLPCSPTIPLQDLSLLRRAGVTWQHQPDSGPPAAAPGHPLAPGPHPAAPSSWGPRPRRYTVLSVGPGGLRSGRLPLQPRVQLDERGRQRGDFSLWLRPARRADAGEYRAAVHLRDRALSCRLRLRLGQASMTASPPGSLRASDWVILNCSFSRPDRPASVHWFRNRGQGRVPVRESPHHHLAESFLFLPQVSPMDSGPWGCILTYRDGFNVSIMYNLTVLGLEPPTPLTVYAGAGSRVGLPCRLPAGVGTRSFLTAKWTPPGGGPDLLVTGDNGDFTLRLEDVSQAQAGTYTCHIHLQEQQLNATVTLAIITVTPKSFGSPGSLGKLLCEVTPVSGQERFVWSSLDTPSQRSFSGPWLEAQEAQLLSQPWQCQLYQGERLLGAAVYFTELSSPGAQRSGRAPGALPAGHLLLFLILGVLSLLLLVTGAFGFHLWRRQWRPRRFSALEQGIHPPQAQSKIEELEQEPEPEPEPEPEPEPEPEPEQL
Description: (§1) The affinity of the mAb² (all containing the LALA mutation) for cell expressed human or cynomolgus LAG-3 was determined using flow cytometry. HEK cells expressing human or cynomolgus LAG-3 grown in DMEM (Life Technologies, 61965-026) containing 10% FBS (Life Technologies, 10270-1-6), 100 μg/ml Hygromycin B (Melford Laboratories Ltd, Z2475), 15 μg/ml Blasticidin (Melford Laboratories Ltd, B1105) and 1 μg/ml Doxycyclin (Sigma, D9891) were detached from tissue culture flasks using cell dissociation buffer (Life Technologies, 13151-014) and seeded in V-bottom 96-well plates (Costar, 3897) at 2×10⁵ cells/well. The plates were centrifuged at 1500 rpm for 3 min at 4° C. to pellet the cells. A dilution series of the mAb² (or control mAb) were incubated with the cells in a 100 μl volume for 1 h at 4° C. The plates were washed and secondary antibody (Anti-human Fc-488, Jackson ImmunoResearch, 109-546-098) was diluted 1:1000 in PBS and 100 μl was added to the cells for 30 min at 4° C. (plates were kept in the dark). The plates were washed and then cells were resuspended in 100 μl PBS containing 1 μg/ml DAPI (Biotium, 40043). The plates were read using Canto II flow cytometer (BD Bioscience). Dead cells were excluded and the fluorescence in the FITC channel (488 nm/530/30) was measured. The data was fit using log (agonist) vs response in GraphPad Prism Software. The plates were read on a BD FACSCanto II cytometer (BD Biosciences) and the data analysed using FlowJo.

[3] = molecular target: T2, cynomolgus LAG-3 expressed on cells (cynomolgus monkey, UniProt P18627 24-525 (human entry)); test: flow cytometry on HEK cells expressing cynomolgus LAG-3
T2 construct: also called cLAG-3; cyno LAG-3
T2 chain: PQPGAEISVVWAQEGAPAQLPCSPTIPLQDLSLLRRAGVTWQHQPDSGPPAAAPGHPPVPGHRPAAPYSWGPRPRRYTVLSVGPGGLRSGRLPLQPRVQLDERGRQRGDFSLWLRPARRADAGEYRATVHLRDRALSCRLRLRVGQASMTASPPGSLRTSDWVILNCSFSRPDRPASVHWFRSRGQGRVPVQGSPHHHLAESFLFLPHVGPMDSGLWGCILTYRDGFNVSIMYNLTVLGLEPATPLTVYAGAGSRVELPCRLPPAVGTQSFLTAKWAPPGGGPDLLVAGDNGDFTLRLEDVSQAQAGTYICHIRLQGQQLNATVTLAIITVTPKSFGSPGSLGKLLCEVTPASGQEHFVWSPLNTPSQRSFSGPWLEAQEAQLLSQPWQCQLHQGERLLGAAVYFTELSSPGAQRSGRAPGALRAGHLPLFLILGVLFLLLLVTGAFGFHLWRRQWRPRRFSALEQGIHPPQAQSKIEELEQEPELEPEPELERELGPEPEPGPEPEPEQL
Description: as §1

[4] = molecular target: T3, human PD-L1 Fc (R&D Systems, 156-B7) (human, UniProt Q9NZQ7 19-239); test: SPR, BIAcore T200; mAb2 captured on Protein L, PD-L1 Fc injected
T3 construct: Bought protein; not shown: Fc tag of the bought fusion protein
T3 sequence (Q9NZQ7 19-239 limits assumed): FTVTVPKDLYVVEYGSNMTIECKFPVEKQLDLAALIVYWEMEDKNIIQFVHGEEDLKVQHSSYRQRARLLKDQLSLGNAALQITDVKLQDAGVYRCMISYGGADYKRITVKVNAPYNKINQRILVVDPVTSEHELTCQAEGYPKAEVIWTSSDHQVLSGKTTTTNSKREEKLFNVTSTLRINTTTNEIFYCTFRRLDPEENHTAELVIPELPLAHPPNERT
Description: (§2) Protein L (Thermo, 21189) was immobilized on flow cells 1 and 2 of a Series S CM5 chip (GE Healthcare, BR-1005-30) by amine coupling (GE Healthcare, BR-1000-50) to a surface density of 2000 RU by following the manufacturer's instructions for the BIAcore T200 instrument. […] The association time was 3 min and the dissociation time was 6 min. Running buffer was HBS-P (GE Healthcare, BR-1003-68). Both flow cells were regenerated by injecting 10 mM sodium hydroxide (NaOH) at a flow rate of 100 μl/min for 20 seconds. The data were analysed by double referencing against the blank flow cell.
(§3) The binding kinetics were fit with a 1:1 Langmuir model to generate binding association (kₐ) and dissociation (kd) rates. Equilibrium binding constants (KD) were calculated by dividing the dissociation rate by the association rate for each sample. Data analysis was performed with BiaEvaluation software version 3.2.

[5] = molecular target: T4, recombinant Fc-tagged human LAG-3 (R&D Systems, 2319-L3-050) (human, UniProt P18627 23-450); test: SPR, BIAcore T200; mAb2 captured on Protein L, human LAG-3 Fc injected
T4 construct: Bought protein; also called LAG-3 Fc; human LAG-3-Fc; not shown: Fc tag of the bought fusion protein
T4 sequence: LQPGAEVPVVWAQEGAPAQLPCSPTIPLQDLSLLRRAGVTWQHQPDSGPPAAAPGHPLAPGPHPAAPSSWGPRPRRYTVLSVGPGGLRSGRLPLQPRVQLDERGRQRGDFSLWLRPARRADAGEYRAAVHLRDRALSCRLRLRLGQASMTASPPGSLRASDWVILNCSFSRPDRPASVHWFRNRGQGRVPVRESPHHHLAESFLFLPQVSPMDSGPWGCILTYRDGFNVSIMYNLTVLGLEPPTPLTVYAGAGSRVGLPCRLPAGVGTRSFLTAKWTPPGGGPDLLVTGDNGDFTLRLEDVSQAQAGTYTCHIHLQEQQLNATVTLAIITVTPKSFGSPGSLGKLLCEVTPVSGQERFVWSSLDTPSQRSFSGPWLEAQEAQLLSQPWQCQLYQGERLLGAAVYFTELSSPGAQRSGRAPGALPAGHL
Description: as §2, §3

[6] = molecular target: T5, human FcγRI (R&D Systems, 1257-FC) (human, UniProt P12314 16-288); test: SPR, Biacore T200; FcγR immobilised, 200 µg/ml injected
T5 construct: Bought recombinant protein
T5 sequence (P12314 16-288 limits assumed): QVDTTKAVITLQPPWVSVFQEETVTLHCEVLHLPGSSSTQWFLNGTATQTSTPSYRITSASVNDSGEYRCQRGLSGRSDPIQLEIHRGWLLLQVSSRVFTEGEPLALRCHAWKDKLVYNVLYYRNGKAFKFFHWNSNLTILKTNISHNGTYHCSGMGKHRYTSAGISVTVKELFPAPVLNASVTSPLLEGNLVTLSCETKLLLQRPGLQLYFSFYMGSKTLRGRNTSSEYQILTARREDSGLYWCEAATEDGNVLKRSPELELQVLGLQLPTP
Description: (§4) The introduction of the LALA mutation in the CH2 domain of human IgG1 is known to reduce Fc γ receptor binding (Bruhns, P., et al. (2009); and Xu, D. et al. (2000)). […] The human FcγR binding assay was performed on a Biacore T200 instrument (GE Healthcare) using the Fcabs in the mock mAb² format. […] For each immobilized chip a flow cell was left blank for background subtraction. FcγR were immobilized using a concentration of 5 μg/ml in sodium acetate pH5 (ForteBio, 18-1069) and injected at a flow rate of 10 μl/min in 15 second cycles until the required immobilization level was reached.
(§5) The flow cells were regenerated by injecting 10 mM sodium hydroxide (VWR, 28244.262) at a flow rate of 100 μl/min for 30 seconds. The data analysis was performed with BiaEvaluation software version 3.2 RC1 by double referencing against the blank flow cell (without immobilized FcγR) and subtracting a buffer cycle from test mAb².

[7] = molecular target: T6, human FcγRIIIa (R&D Systems, 4325-FC) (human, UniProt P08637 17-208); test: as above
T6 construct: Bought recombinant protein
T6 sequence (P08637 17-208 limits assumed): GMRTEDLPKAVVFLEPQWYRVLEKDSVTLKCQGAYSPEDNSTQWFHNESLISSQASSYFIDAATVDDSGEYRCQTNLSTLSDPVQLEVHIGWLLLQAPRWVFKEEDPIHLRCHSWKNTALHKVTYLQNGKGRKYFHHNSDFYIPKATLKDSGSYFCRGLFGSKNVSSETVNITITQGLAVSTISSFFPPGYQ
Description: as §4, §5

[8] = molecular target: T7, human FcγRIIa (R&D Systems, 1330-CD) (human, UniProt P12318 36-218, limits assumed); test: SPR, Biacore T200; FcγR immobilised, 500 µg/ml injected
T7 construct: Bought recombinant protein
T7 sequence (looked up): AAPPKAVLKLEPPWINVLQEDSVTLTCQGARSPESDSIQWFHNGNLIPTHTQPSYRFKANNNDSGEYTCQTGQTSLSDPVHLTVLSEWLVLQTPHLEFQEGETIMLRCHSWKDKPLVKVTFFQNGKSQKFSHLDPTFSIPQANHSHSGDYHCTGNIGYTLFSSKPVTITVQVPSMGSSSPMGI
Description: as §4, §5

[9] = molecular target: T8, human FcγRIIb/c (R&D Systems, 1875-CD) (human, UniProt P31994 46-217); test: as above
T8 construct: Bought recombinant protein
T8 sequence (looked up): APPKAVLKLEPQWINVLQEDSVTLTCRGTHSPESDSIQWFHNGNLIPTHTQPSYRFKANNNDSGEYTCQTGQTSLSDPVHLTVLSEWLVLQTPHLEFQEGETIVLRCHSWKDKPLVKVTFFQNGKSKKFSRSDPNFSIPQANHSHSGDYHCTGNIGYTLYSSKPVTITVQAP
Description: as §4, §5

Row | Binder | Maximal IL2 release calculated as % ctrl (84G09 + 25F7) [1] [%] | EC50 [2] [nM] | EC50 [3] [nM] | fold better binding (EC50) than control antibody 25F7 [3] [fold] | Kd [4] [nM] | koff [4] [s⁻¹] | kon [4] [M⁻¹ s⁻¹] | Kd [5] [nM] | koff [5] [s⁻¹] | kon [5] [M⁻¹ s⁻¹] | binding response at end of association (RU) [6] [RU] | binding response at end of association (RU) [7] [RU] | binding response at end of association (RU) [8] [RU] | binding response at end of association (RU) [9] [RU]
1 | B1 | 59 | 4.08 | 26.4 | ≥ 2 | 1.3 | 0.00022 | 170000 | 0.036 | 0.0002 | 5.4e+06 |  |  |  | 
2 | B2 |  |  |  |  |  |  |  |  |  |  | 26 | 44 | 13 | 17.7
3 | B3 |  |  |  |  |  |  |  |  |  |  | 2 | 8 | -12.7 | -9.6
